According to patent US20050186662A1:

Biological target: neonatal Fc receptor (FcRn) of the neonatal rat small intestine (rat) (UniProt P13599)
Experiment: cell-based or functional assay

UniProt P13599, sequence (P13599 23-366, form in doubt): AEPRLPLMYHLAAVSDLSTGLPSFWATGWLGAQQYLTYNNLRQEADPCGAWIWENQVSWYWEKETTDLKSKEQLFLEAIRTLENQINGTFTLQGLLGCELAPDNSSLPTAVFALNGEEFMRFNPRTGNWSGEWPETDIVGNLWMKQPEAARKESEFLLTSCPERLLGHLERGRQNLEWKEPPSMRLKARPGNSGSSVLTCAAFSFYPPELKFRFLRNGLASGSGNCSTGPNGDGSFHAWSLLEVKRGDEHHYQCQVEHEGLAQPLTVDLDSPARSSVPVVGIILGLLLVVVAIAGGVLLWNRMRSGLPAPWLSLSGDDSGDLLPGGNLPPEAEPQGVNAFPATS

Substance	reduction in transport (oral delivery of 125I-labelled protein into neonatal rat serum) in the presence of 300-fold excess unlabeled human IgG1, by phosphorimage analysis
heterodimer FSH-Fc (Fc fusion)	53%
single-chain FSH-Fc (from UniProt P01225 19-129; P01215 25-116) (Fc fusion)	83%
